Results taken from article PMC11470942 (Nature Communications, 2024).

Biological target: HPIV3 fusion protein (F), parental (Human parainfluenza virus 3, strain …, UniProt P06828)
Experiment: immunostaining of cells or tissue

Chain of HPIV3 fusion protein (F), parental (P06828 19-539): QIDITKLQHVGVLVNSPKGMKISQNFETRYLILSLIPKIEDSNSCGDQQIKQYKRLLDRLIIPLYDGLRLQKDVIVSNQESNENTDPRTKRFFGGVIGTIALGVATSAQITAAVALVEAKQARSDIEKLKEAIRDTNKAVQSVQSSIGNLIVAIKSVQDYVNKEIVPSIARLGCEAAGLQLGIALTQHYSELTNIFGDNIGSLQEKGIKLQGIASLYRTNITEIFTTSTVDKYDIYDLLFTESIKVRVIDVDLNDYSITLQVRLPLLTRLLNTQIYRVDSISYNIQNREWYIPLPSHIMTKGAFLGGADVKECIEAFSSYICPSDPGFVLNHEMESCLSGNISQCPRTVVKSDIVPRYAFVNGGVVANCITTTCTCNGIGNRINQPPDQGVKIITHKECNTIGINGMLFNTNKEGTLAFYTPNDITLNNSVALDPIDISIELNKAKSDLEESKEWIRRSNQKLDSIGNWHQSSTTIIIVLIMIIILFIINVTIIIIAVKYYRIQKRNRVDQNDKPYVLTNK

B1: PIA174 antibody fragment (Fab) (Fab, V domains shown)
VH: VQLQESGPGLVKPSETLSLTCTVSGGSVSSYYWSWIRQPPGKGLEWIGNIYYSGTTKYNPSLKSRVTISVDVSKNQFSLNLISVTAADTAVYFCARQVKSGWFVQPFDYWGQGALVTVSS
VL: QMTQSPPSLSAYVGDRVTITCRASQAIANYLAWFQQKPGKAPKSLIYAASTLQSGVPSRFSGSGSGTDFTLTISSLQPEDFATYYCHQYNTYPITFGQGTRLEIK
binding result: binds
